The source of these data is IntAct's records for PubMed 31515488.

The chains are these.
B1: DCC-interacting protein 13-beta (Homo sapiens), Q8NEU8 (parent)
chain: MPAVDKLLLEEALQDSPQTRSLLSVFEEDAGTLTDYTNQLLQAMQRVYGAQNEMCLATQQLSKQLLAYEKQNFALGKGDEEVISTLHYFSKVVDELNLLHTELAKQLADTMVLPIIQFREKDLTEVSTLKDLFGLASNEHDLSMAKYSRLPKKKENEKVKTEVGKEVAAARRKQHLSSLQYYCALNALQYRKQMAMMEPMIGFAHGQINFFKKGAEMFSKRMDSFLSSVADMVQSIQVELEAEAEKMRVSQQELLSVDESVYTPDSDVAAPQINRNLIQKAGYLNLRNKTGLVTTTWERLYFFTQGGNLMCQPRGAVAGGLIQDLDNCSVMAVDCEDRRYCFQITTPNGKSGIILQAESRKENEEWICAINNISRQIYLTDNPEAVAIKLNQTALQAVTPITSFGKKQESSCPSQNLKNSEMENENDKIVPKATASLPEAEELIAPGTPIQFDIVLPATEFLDQNRGSRRTNPFGETEDESFPEAEDSLLQQMFIVRFLGSMAVKTDSTTEVIYEAMRQVLAARAIHNIFRMTESHLMVTSQSLRLIDPQTQVSRANFELTSVTQFAAHQENKRLVGFVIRVPESTGEESLSTYIFESNSEGEKICYAINLGKEIIEVQKDPEALAQLMLSIPLTNDGKYVLLNDQPDDDDGNPNEHRGAESEA
partner: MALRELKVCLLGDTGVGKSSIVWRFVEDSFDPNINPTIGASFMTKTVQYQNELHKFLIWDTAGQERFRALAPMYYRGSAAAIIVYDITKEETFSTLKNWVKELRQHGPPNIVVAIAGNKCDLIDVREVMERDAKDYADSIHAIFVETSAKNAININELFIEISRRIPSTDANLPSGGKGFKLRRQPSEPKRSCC
B2: Keratin-associated protein 5-9 (Homo sapiens), P26371 (parent)
chain: MGCCGCSGGCGSSCGGCDSSCGSCGSGCRGCGPSCCAPVYCCKPVCCCVPACSCSSCGKRGCGSCGGSKGGCGSCGCSQCSCCKPCCCSSGCGSSCCQCSCCKPYCSQCSCCKPCCSSSGRGSSCCQSSCCKPCCSSSGCGSSCCQSSCCKPCCSQSRCCVPVCYQCKI
partner: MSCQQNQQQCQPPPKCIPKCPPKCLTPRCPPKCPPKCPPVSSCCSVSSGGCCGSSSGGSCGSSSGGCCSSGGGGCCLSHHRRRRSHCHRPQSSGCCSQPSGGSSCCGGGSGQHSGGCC
B3: Rho guanine nucleotide exchange factor 39 (Homo sapiens), Q8N4T4 (parent)
chain: MELSCPGSRCPVQEQRARWERKRACTARELLETERRYQEQLGLVATYFLGILKAKGTLRPPERQALFGSWELIYGASQELLPYLEGGCWGQGLEGFCRHLELYNQFAANSERSQTTLQEQLKKNKGFRRFVRLQEGRPEFGGLQLQDLLPLPLQRLQQYENLVVALAENTGPNSPDHQQLTRAARLISETAQRVHTIGQKQKNDQHLRRVQALLSGRQAKGLTSGRWFLRQGWLLVVPPHGEPRPRMFFLFTDVLLMAKPRPPLHLLRSGTFACKALYPMAQCHLSRVFGHSGGPCGGLLSLSFPHEKLLLMSTDQEELSRWYHSLTWAISSQKN
partner: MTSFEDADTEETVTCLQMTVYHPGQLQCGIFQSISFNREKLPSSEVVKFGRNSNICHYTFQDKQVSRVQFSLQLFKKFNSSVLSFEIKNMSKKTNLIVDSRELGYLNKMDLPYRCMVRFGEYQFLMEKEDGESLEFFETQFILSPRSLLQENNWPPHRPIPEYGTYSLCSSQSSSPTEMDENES
B4: Four and a half LIM domains protein 2 (Homo sapiens), Q14192 (parent)
chain: MTERFDCHHCNESLFGKKYILREESPYCVVCFETLFANTCEECGKPIGCDCKDLSYKDRHWHEACFHCSQCRNSLVDKPFAAKEDQLLCTDCYSNEYSSKCQECKKTIMPGTRKMEYKGSSWHETCFICHRCQQPIGTKSFIPKDNQNFCVPCYEKQHAMQCVQCKKPITTGGVTYREQPWHKECFVCTACRKQLSGQRFTARDDFAYCLNCFCDLYAKKCAGCTNPISGLGGTKYISFEERQWHNDCFNCKKCSLSLVGRGFLTERDDILCPDCGKDI
partner: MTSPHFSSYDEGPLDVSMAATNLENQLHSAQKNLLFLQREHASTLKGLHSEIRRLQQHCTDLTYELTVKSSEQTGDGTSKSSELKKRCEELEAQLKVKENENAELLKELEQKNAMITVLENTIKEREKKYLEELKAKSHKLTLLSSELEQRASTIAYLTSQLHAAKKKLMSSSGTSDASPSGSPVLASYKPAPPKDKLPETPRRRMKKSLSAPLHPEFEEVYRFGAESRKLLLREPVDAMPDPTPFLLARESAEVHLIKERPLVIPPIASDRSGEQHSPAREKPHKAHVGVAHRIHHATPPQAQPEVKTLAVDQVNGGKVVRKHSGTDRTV
B5: Isoform 1 of Cell division control protein 45 homolog (Homo sapiens), O75419-1 (parent)
chain: MFVSDFRKEFYEVVQSQRVLLFVASDVDALCACKILQALFQCDHVQYTLVPVSGWQELETAFLEHKEQFHYFILINCGANVDLLDILQPDEDTIFFVCDTHRPVNVVNVYNDTQIKLLIKQDDDLEVPAYEDIFRDEEEDEEHSGNDSDGSEPSEKRTRLEEEIVEQTMRRRQRREWEARRRDILFDYEQYEYHGTSSAMVMFELAWMLSKDLNDMLWWAIVGLTDQWVQDKITQMKYVTDVGVLQRHVSRHNHRNEDEENTLSVDCTRISFEYDLRLVLYQHWSLHDSLCNTSYTAARFKLWSVHGQKRLQEFLADMGLPLKQVKQKFQAMDISLKENLREMIEESANKFGMKDMRVQTFSIHFGFKHKFLASDVVFATMSLMESPEKDGSGTDHFIQALDSLSRSNLDKLYHGLELAKKQLRATQQTIASCLCTNLVISQGPFLYCSLMEGTPDVMLFSRPASLSLLSKHLLKSFVCSTKNRRCKLLPLVMAAPLSMEHGTVTVVGIPPETDSSDRKNFFGRAFEKAAESTSSRMLHNHFDLSVIELKAEDRSKFLDALISLLS
partner: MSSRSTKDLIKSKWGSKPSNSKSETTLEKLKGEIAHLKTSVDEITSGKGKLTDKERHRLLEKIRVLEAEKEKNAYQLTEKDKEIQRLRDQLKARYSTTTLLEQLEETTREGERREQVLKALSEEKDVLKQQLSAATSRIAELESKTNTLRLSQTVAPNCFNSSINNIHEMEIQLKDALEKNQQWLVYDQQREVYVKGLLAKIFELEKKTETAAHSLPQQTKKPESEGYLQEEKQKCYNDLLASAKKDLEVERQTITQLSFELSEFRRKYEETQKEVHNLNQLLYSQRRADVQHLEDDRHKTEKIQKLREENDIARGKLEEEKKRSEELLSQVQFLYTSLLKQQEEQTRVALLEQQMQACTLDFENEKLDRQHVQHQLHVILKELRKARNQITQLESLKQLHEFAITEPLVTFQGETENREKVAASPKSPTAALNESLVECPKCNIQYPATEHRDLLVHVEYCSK

In one assay the parent is B1. The settings on record: with rb22a_human RAB22A.
Consider K70R, for which the “effect of a mutation on the interaction” value is “with no effect”.

Another assay covers variants of B2. The settings on record: with lce1b_human LCE1B.
In the case of MGCCGCSGGCGSSCGGCDSSCGSCGSGCRGCGPSCCAPVCCCKPVCCCVPACSCSSCGKRGCGSCGGSKGGCGSCGCSQCSCCKPCCCSSGCGSSCCQCSCCKPYCSQCSCCKPCCSSSGRGSSCCQSSCCKPCCSSSGCGSSCCQSSCCKPCCSQSRCCVPVCYQCKI [Y40C], the “effect of a mutation on the interaction” value is reported as “with no effect”.

A further assay covers variants of B3. The settings on record: with tifa_human TIFA.
In the case of MELSCPGSRCPVQEQRARWERKRACTARELLETERRYQEQLGLVATYFLGILKAKGTLRPPERQALFGSWELIYGASQELLPYLEGGCWGQGLEGFCRHLELYNQFAANSERSQTTLQEQLKKNKGFRRFVRLQEGRPEFGGLQLQDLLPLPLQRLQQYENLVVALAENTGPNSPDHQQLTRAARLISETAQRVHTIGQKQKNNQHLRRVQALLSGRQAKGLTSGRWFLRQGWLLVVPPHGEPRPRMFFLFTDVLLMAKPRPPLHLLRSGTFACKALYPMAQCHLSRVFGHSGGPCGGLLSLSFPHEKLLLMSTDQEELSRWYHSLTWAISSQKN [D204N], the “effect of a mutation on the interaction” value is “with no effect”.
Same read-out and setting: to MELSCPGSRCPVQEQRARWERKRACTARELLETERRYQEQLGLVATYFLGILKAKGTLRPPERQALFGSWELIYGASQELLPYLEGGCWGQGLEGFCRHLELYNQFAANSERSQTTLQEQLKKNKGFRRFVRLQEGRPEFGGLQLQDLLPLPLQRLQQYENLVVALAENTGPNSPDHQQLTRAARLISETAQRVHTIGQKQKNDQHLRRVQALLSGRQAKGLTSGRWFLCQGWLLVVPPHGEPRPRMFFLFTDVLLMAKPRPPLHLLRSGTFACKALYPMAQCHLSRVFGHSGGPCGGLLSLSFPHEKLLLMSTDQEELSRWYHSLTWAISSQKN [R230C] belongs “with no effect”.

The next assay covers variants of B4. The settings on record: with ccd92_human CCDC92, Q53HC0.
Consider MTERFDCHHCNESLFGKKYILREESPYCVVCFETLFANTCEECGKPIGCDCKDLSYKDRHWHEACFHCSQCRNSLVDKPFAAKEDQLLCTDCYSKEYSSKCQECKKTIMPGTRKMEYKGSSWHETCFICHRCQQPIGTKSFIPKDNQNFCVPCYEKQHAMQCVQCKKPITTGGVTYREQPWHKECFVCTACRKQLSGQRFTARDDFAYCLNCFCDLYAKKCAGCTNPISGLGGTKYISFEERQWHNDCFNCKKCSLSLVGRGFLTERDDILCPDCGKDI [N95K], for which the “effect of a mutation on the interaction” value is on record as “with no effect”.
The same measure, in the same setting: to MTERFDCHHCNESLFGKKYILREESPYCVVCFETLFSNTCEECGKPIGCDCKDLSYKDRHWHEACFHCSQCRNSLVDKPFAAKEDQLLCTDCYSNEYSSKCQECKKTIMPGTRKMEYKGSSWHETCFICHRCQQPIGTKSFIPKDNQNFCVPCYEKQHAMQCVQCKKPITTGGVTYREQPWHKECFVCTACRKQLSGQRFTARDDFAYCLNCFCDLYAKKCAGCTNPISGLGGTKYISFEERQWHNDCFNCKKCSLSLVGRGFLTERDDILCPDCGKDI [A37S] belongs “with no effect”.

In the next assay the parent is B5. The settings on record: with cep55_human CEP55, Q53EZ4.
For the variant MFVSDFRKEFYEVVQSQRVLLFVASDVDALCACKILQALFQCDHVQYTLVPVSGWQELETAFLEHKEQFHYFILINCGANVDLLDILQPDEDTIFFVCDTHRPVNVVNVYNDTQIKLLIKQDDDLEVPAYEDIFRDEEEDEEHSGNDSDESEPSEKRTRLEEEIVEQTMRRRQRREWEARRRDILFDYEQYEYHGTSSAMVMFELAWMLSKDLNDMLWWAIVGLTDQWVQDKITQMKYVTDVGVLQRHVSRHNHRNEDEENTLSVDCTRISFEYDLRLVLYQHWSLHDSLCNTSYTAARFKLWSVHGQKRLQEFLADMGLPLKQVKQKFQAMDISLKENLREMIEESANKFGMKDMRVQTFSIHFGFKHKFLASDVVFATMSLMESPEKDGSGTDHFIQALDSLSRSNLDKLYHGLELAKKQLRATQQTIASCLCTNLVISQGPFLYCSLMEGTPDVMLFSRPASLSLLSKHLLKSFVCSTKNRRCKLLPLVMAAPLSMEHGTVTVVGIPPETDSSDRKNFFGRAFEKAAESTSSRMLHNHFDLSVIELKAEDRSKFLDALISLLS [G150E], the “effect of a mutation on the interaction” value was “with no effect”.
